A short description of this series: Stability challenge test of plant-made EGF in formulation 1. The class given is physicochemical. As to conditions: reconstituted freeze-dried non-glycosylated EGF in formulation 1; +4° C., RT and +37° C.; up to 3 weeks; gel, FIG. 5. From the text:
Size markers 11 and 17 kDa in the first lane. […] (Ref.http://www.cellsciences.com/PDF/CRE100.pdf)

With “plant-made EGF: purified, reconstituted freeze-dried, non-glycosylated, plant-made EGF in a formulation as in Example 5, formulation 1”, the “stability of the growth factor” value was “excellent stability”.

These data come from US20130266536A1, “METHOD OF USE OF STABILIZED PLANT-DERIVED GROWTH FACTOR IN SKIN CARE” (priority 2010, published 2013).
